Substitutions are numbered along the chain they refer to. Read-outs that look alike come from different tables or passages of the source.
T1: human IL-17F homodimer (human, UniProt Q96PD4 31-163)
T1 sequence: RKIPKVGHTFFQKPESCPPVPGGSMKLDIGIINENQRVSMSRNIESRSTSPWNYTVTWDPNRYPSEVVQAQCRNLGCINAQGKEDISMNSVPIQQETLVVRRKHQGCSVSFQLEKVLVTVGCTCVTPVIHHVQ

B1: C/DVCV1 IgG1.1 (bispecific antibody)
heavy: QIQLVQSGPELKKPGETVEISCKASGYTFTDYLIFWVKQAPGKGLNWMGWINTETVEPTYADDFKGRFAFSLETSASTAHLLINNLKKEDTSTYFCARVPHLGPYYYAMDYWGQGTSVTVSSASTKGPSVFPLAPSSKSTSGGTAALGCLVKDYFPEPVTVSWNSGALTSGVHTFPAVLQSSGLYSLSSVVTVPSSSLGTQTYICNVNHKPSNTKVDKKVEPKSCGGGGSGGGGSQVTLKESGPGILQPSQTLSLTCSFSGFSLSTSGMGVGWIRQPSGKGLEWLANIWWDDDKRYNPALKSRLTISKDTSSNQVFLKIASVDTADTATYYCARIDYDYDRGAYHVMDYWGQGTSVTVSSEPKSSDKTHTCPPCPAPEAEGAPSVFLFPPKPKDTLMISRTPEVTCVVVDVSHEDPEVKFNWYVDGVEVHNAKTKPREEQYNSTYRVVSVLTVLHQDWLNGKEYKCKVSNKALPSSIEKTISKAKGQPREPQVYTLPPSRDELTKNQVSLTCLVKGFYPSDIAVEWESNGQPENNYKTTPPVLDSDGSFFLYSKLTVDKSRWQQGNVFSCSVMHEALHNHYTQKSLSLSPGK
light: DIVLKQSPASLGVALGQRATISCRASKSVSTSDFSYMHWYQQKPGQPPELLIYLASNLESGVPARFSGSGSGTDFTLNIHPVEEEDAATYYCQHSREFPPTFGAGTKLELKRTVAAPSVFIFPPSDEQLKSGTASVVCLLNNFYPREAKVQWKVDNALQSGNSQESVTEQDSKDSTYSLSSTLTLSKADYEKHKVYACEVTHQGLSSPVTKSFNRGECGGGGSGGGGSDIQMTQSPASLSVSVGETVTITCRTSENIFSNLAWYQQKQGKSPQLLVYDATNLADGVPSRFSGSGSGTQYSLKINSLQSEDFGTYYCQHFWYTPWTFGGGTKLEIK
B2: 339-33 (antibody, human IgG1, V domains shown)
VH: QVQLVQSGAEVKKPGASVKVSCKASGYTFTEYTMHWVRQAPGQRLEWMGGINPNSGGVSYNQNFKGRVTITRDTSASTAYMELSSLRSEDTAVYYCARGGDGYYTNYFDIDYWGQGTTVTVSS
VL: EIVLTQSPDFQSVTPKEKVTITCSASSSVNYMHWYQQKPDQSPKLLIKDTSKLASGVPSRFSGSGSGTDFTLTINSLEAEDAATYYCQQWNSHPLTFGQGTKLEIK
B3: 339-39 (antibody, human IgG1, V domains shown)
VH: B2 VH with T30N, R38K, A40S, P41H, R67K, V68A, I70L, R72V, A76S, Y94F
VL: B2 VL
B4: 339-35 (antibody, human IgG1, V domains shown)
VH: B2 VH with T30N, R38K, A40S, P41H
VL: B2 VL
B5: 339-127 (antibody, human IgG1, V domains shown)
VH: B2 VH with T30N, R38K, A40S, P41H
VL: DIQMTQSPSSLSASVGDRVTITCSASSSVNYMHWYQQKPGKVPKLLIYDTSKLASGVPSRFSGSGSGTDFTLTISSLQPEDVATYYCQQWNSHPLTFGQGTKLEIK
B6: 339-71 (antibody, human IgG1, V domains shown)
VH: B2 VH with R67K, V68A, I70L, R72V
VL: B2 VL
B7: 339-37 (antibody, human IgG1, V domains shown)
VH: B2 VH with A76S, Y94F
VL: B2 VL
B8: 339-104 (antibody, human IgG1, V domains shown)
VH: B2 VH with T30N, R38K, A40S, P41H, R67K, V68A, I70L, R72V, A76S, Y94F
VL: B5 VL
B9: 339-126 (antibody, human IgG1, V domains shown)
VH: B2 VH
VL: B5 VL
B10: 339-105 (antibody, human IgG1, V domains shown)
VH: B2 VH with A76S, Y94F
VL: B5 VL
B11: 339-128 (antibody, human IgG1, V domains shown)
VH: B2 VH with R67K, V68A, I70L, R72V
VL: B5 VL
B12: 339-38 (antibody, human IgG1, V domains shown)
VH: B2 VH with T30N, R38K, A40S, P41H, R67K, V68A, I70L, R72V
VL: B2 VL
B13: 339-125 (antibody, human IgG1, V domains shown)
VH: B2 VH with T30N, R38K, A40S, P41H, R67K, V68A, I70L, R72V
VL: B5 VL
B14: human IL-23 (IL-23p19/IL-12B heterodimer) (ligand)
chain 1: RAVPGGSSPAWTQCQQLSQKLCTLAWSAHPLVGHMDLREEGDEETTNDVPHIQCGDGCDPQGLRDNSQFCLQRIHQGLIFYEKLLGSDIFTGEPSLLPDSPVGQLHASLLGLSQLLQPEGHHWETQQIPSLSPSQPWQRLLLRFKILRSLQAFVAVAARVFAHGAATLSP
chain 2: IWELKKDVYVVELDWYPDAPGEMVVLTCDTPEEDGITWTLDQSSEVLGSGKTLTIQVKEFGDAGQYTCHKGGEVLSHSLLLLHKKEDGIWSTDILKDQKEPKNKTFLRCEAKNYSGRFTCWWLTTISTDLTFSVKSSRGSSDPQGVTCGAATLSAERVRGDNKEYEYSVECQEDSACPAAEESLPIEVMVDAVHKLKYENYTSSFFIRDIIKPDPPKNLQLKPLKNSRQVEVSWEYPDTWSTPHSYFSLTFCVQVQGKSKREKKDRVFTDKTSATVICRKNASISVRAQDRYYSSSWSEWASVPCS
B15: wild-type IL-23 (His-tagged p19 / non-tagged p40) (ligand, human)
chain 1: B14 chain 1
chain 2: B14 chain 2

Legend:
human PDGF-C = human PDGF-C (human, UniProt Q9NRA1 235-345, limits assumed); assay: cell-based or functional assay
Sequence of human PDGF-C (Q9NRA1 235-345 limits assumed): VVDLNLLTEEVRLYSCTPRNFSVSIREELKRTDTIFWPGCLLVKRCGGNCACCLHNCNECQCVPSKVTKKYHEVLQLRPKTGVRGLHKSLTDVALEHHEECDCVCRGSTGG

human PDGF-D = human PDGF-D (human, UniProt Q9GZP0 250-370, limits assumed); assay: cell-based or functional assay
Sequence of human PDGF-D (Q9GZP0 250-370 limits assumed): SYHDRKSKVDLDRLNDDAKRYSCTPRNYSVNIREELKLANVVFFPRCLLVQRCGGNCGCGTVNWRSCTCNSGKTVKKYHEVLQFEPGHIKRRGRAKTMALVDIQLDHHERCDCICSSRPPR

human IL-17A homodimer [1] = target: T2, human IL-17A homodimer (human, UniProt Q16552 24-155); assay: cell-based or functional assay
[2] = target: T3, human IL-17A/F heterodimer (human, UniProt Q16552 24-155; Q96PD4 31-163); assay: cell-based or functional assay
human IL-17F homodimer [3] = target: T1, human IL-17F homodimer; assay: cell-based or functional assay
human IL-17A homodimer [4] = target: T2, human IL-17A homodimer; assay: cell-based or functional assay; remark: listed apart in the source
[5] = target: T3, human IL-17A/F heterodimer; assay: cell-based or functional assay; remark: listed apart in the source
human IL-17F homodimer [6] = target: T1, human IL-17F homodimer; assay: cell-based or functional assay; remark: listed apart in the source
human IL-17A homodimer [7] = target: T2, human IL-17A homodimer; assay: SPR Biacore T100, captured antibody, bivalent analyte model
Protocol: (§1) Binding kinetics and affinity studies were performed on a BIACORE® T100 system (GE Healthcare, Piscataway, N.J.). Methods for the BIACORE® T100 were programmed using BIACORE® T100 Control Software, v 2.0. For these experiments, the humanized anti-human IL-17A/F antibodies were captured onto a CM4 sensor chip via either goat anti-human IgG Fc-gamma antibody (Jackson ImmunoResearch, West Grove, Pa.) or goat anti-mouse IgG Fc-gamma antibody (Jackson ImmunoResearch). Binding experiments with the IL-17 molecules were performed at 25° C. in a buffer of 10 mM HEPES, 150 mM NaCl, 3 mM EDTA, 0.05% Surfactant P20 (GE Healthcare), 1 mg/mL bovine serum albumin, pH 7.4.
(§2) The capture antibody, goat anti-human IgG Fc-gamma, was diluted to concentration of 20 μg/mL in 10 mM sodium acetate pH 5.0, and then covalently immobilized to all four flow cells of a CM4 sensor chip using amine coupling chemistry (EDC:NHS). […] A capture antibody density of approximately 5000 RU was obtained. The humanized anti-human IL-17A/F antibodies were captured onto flow cell 2, 3, or 4 of the CM4 chip at a density ranging from 60-150 RU. Capture of the test antibodies to the immobilized surface was performed at a flow rate of 10 μL/min. The BIACORE® instrument measures the mass of protein bound to the sensor chip surface, and thus, capture of the test antibody was verified for each cycle. […] The serial dilutions were injected over the surface and allowed to specifically bind to the test antibody captured on the sensor chip. Duplicate injections of each antigen concentration were performed with an association time of 7 minutes and dissociation time of 15 minutes. Kinetic binding studies were performed with a flow rate of 50 μL/min. In between cycles, the flow cell was washed with 20 mM hydrochloric acid to regenerate the surface. This wash step removed both the captured test antibody and any bound antigen from the immobilized antibody surface. The test antibody was subsequently captured again in the next cycle.
(§3) Data was compiled using the BIACORE® T100 Evaluation software (version 2.0).

[8] = target: T3, human IL-17A/F heterodimer; assay: as above
Protocol: as §1, §2, §3

human IL-17F homodimer [9] = target: T1, human IL-17F homodimer; assay: as above
Protocol: as §1, §2, §3

[10] = target: T4, human IL-23Rα/human IL-12Rβ1 on BaF3 transfectants (human, UniProt Q5VWK5 24-629; P42701 24-662); assay: cell-based or functional assay
[11] = target: T4, human IL-23Rα/human IL-12Rβ1 on BaF3 …; assay: cell-based or functional assay; remark: listed apart in the source

Binder | IC50, NIH/3T3/KZ170 NF-kB luciferase reporter (human IL-17A homodimer [4]) | IC50, NIH/3T3/KZ170 NF-kB luciferase reporter [5] | IC50, NIH/3T3/KZ170 NF-kB luciferase reporter (human IL-17F homodimer [6]) | also measured
B1 | – | – | – | IC50, NHLF proliferation (3H-thymidine) (human PDGF-C): 0.09 nM; IC50, NHLF proliferation (3H-thymidine) (human PDGF-D): 20 nM
B2 | – | – | – | IC50, NIH/3T3/KZ170 NF-kB luciferase reporter (human IL-17A homodimer [1]): > 600 nM; IC50, NIH/3T3/KZ170 NF-kB luciferase reporter [2]: 9.7 nM; IC50, NIH/3T3/KZ170 NF-kB luciferase reporter (human IL-17F homodimer [3]): 1.7 nM
B3 | 7.6 nM | 0.23 nM | 0.25 nM | –
B4 | > 600 nM | 2.4 nM | 0.64 nM | –
B5 | 190 nM | 3.4 nM | 0.5 nM | –
B6 | 16 nM | 0.37 nM | 0.2 nM | –
B7 | > 600 nM | 20 nM | 3.5 nM | –
B8 | 1.5 nM | 0.83 nM | 0.83 nM | –
B9 | – | – | – | IC50, NIH/3T3/KZ170 NF-kB luciferase reporter (human IL-17A homodimer [1]): > 600 nM; IC50, NIH/3T3/KZ170 NF-kB luciferase reporter [2]: 24 nM; IC50, NIH/3T3/KZ170 NF-kB luciferase reporter (human IL-17F homodimer [3]): 1.6 nM
B10 | > 600 nM | 23 nM | 2.6 nM | –
B11 | 5.1 nM | 0.41 nM | 0.25 nM | –
B12 | 8.2 nM | 0.27 nM | 0.27 nM | Kd (human IL-17A homodimer [7]): 1 nM; koff (human IL-17A homodimer [7]): 0.005 s⁻¹; kon (human IL-17A homodimer [7]): 4e+06 M⁻¹ s⁻¹; Kd [8]: 0.4 nM; koff [8]: 0.0004 s⁻¹; kon [8]: 1e+06 M⁻¹ s⁻¹; Kd (human IL-17F homodimer [9]): 0.3 nM; koff (human IL-17F homodimer [9]): 0.0006 s⁻¹; kon (human IL-17F homodimer [9]): 2e+06 M⁻¹ s⁻¹
B13 | 1.5 nM | 0.81 nM | 0.83 nM | Kd (human IL-17A homodimer [7]): 1 nM; koff (human IL-17A homodimer [7]): 0.003 s⁻¹; kon (human IL-17A homodimer [7]): 2e+06 M⁻¹ s⁻¹; Kd [8]: 0.3 nM; koff [8]: 0.0006 s⁻¹; kon [8]: 2e+06 M⁻¹ s⁻¹; Kd (human IL-17F homodimer [9]): 0.1 nM; koff (human IL-17F homodimer [9]): 0.0002 s⁻¹; kon (human IL-17F homodimer [9]): 2e+06 M⁻¹ s⁻¹
B14 | – | – | – | EC50, STAT3 phosphorylation in Baf3/huIL-23Ra/huIL-12Rb1 transfectants [10]: 0.02 nM
B15 | – | – | – | EC50, pSTAT3 in BaF3/huIL-23Ra/huIL-12Rb1 transfectants [11]: 21 pM

From patent publication US20170275357A1 (Bristol-Myers Squibb, published 2017)
